Earlier results in JP2018508186A, “Il−17a結合ポリペプチド” (アフィボディ アクティエボラーグ, priority 2015, dated 2016).

Tests used:
IL-17A [1] = molecular target: T1, IL-17A (Homo sapiens, UniProt Q16552); conditions: from WO2006/013107 and WO2012/125680; read-out: IC50, hIL-6 production neutralising activity, reported
IL-17A [2] = molecular target: T1, IL-17A; conditions: from WO2006/013107, WO2012/125680, WO2007/070750; read-out: KD for IL-17A, reported

T1 sequence (Q16552 24-155): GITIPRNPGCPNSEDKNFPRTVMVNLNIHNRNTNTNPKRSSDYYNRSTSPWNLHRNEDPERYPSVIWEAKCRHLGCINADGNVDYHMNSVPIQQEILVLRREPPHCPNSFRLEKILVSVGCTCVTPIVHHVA

Substance	IC50 (IL-17A [1]) [nM]	Kd (IL-17A [2]) [nM]
セクキヌマブ: anti-IL-17A monoclonal antibody	2.1 ± 0.1	0.122
イキセキズマブ: anti-IL-17A monoclonal antibody		0.002
